Data taken from patent US20040230039A1 (YEDA RESEARCH AND DEVELOPMENT, published 2004).
Residue numbers refer to the chain shown, from its start. Names and notes keep the numbering of the source.

T1: Acetyl-Asp-Glu-Val-Asp-a-(4-Methyl-Coumaryl-7-Amide)
T1 sequence: DEVD

T2: Acetyl-Tyr-Val-Ala-Asp-AMC
T2 sequence: YVAD

T3: TRADD (human, UniProt Q15628 1-312, limits assumed)
T3 construct: Gal4 hybrid in yeast
T3 sequence (looked up): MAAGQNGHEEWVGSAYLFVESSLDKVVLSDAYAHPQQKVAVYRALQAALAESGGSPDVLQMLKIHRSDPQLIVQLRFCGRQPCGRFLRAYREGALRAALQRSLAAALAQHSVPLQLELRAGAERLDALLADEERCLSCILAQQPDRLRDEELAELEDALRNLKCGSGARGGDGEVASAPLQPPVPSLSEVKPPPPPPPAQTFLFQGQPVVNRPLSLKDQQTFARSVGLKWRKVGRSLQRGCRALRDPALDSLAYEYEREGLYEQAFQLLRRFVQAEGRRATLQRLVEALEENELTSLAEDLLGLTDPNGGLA

T4: MORT-1 (FADD), human, full-length (human), Q13158
T4 chain: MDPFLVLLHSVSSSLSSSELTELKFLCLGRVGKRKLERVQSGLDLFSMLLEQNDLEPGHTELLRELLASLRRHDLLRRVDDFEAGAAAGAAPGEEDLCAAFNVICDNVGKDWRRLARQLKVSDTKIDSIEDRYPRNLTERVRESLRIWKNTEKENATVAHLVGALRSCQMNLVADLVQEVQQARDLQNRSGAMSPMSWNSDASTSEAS

T5: FLAG-MORT-1 (UniProt Q13158 1-208)
T5 construct: Expressed and 35S-labeled in HeLa cells; yielded proteins of about 27, 28, 32 and 34 kD; also called MORT-1-FLAG fusion protein; not shown: FLAG octapeptide (Eastman Kodak), N-terminal
T5 sequence (looked up): T4 chain

B1: MORT-1 (FADD), human, full-length (other, UniProt Q13158 1-208, looked up)
chain: T4 chain
notes: Gal4 hybrid in yeast; also expressed in mammalian cells; also called HF1
B2: mouse Fas-IC (receptor, UniProt P25446 187-327, looked up)
chain: RKYRKRKCWKRRQDDPESRTSSRETIPMNASNLSLSKYIPRIAEDMTIQEAKKFARENNIKEGKIDEIMHDSIQDTAEQKVQLLLCWYQSHGKSDAYQDLIKGLKKAECRRTLDKFQDMVQKDLGKSTPDTGNENEGQCLE
notes: domain: intracellular domain
B3: MACHβ1 (ORF-B of MACH) (other, human, UniProt Q14790-5 1-235, looked up)
chain: MDFSRNLYDIGEQLDSEDLASLKFLSLDYIPQRKQEPIKDALMLFQRLQEKRMLEESNLSFLKELLFRINRLDLLITYLNTRKEEMERELQTPGRAQISAYRVMLYQISEEVSRSELRSFKFLLQEEISKCKLDDDMNLLDIFIEMEKRVILGEGKLDILKRVCAQINKSLLKIINDYEEFSKERSSSLEGSPDEFSNDFGQSLPNEKQTSGILSDHQQSQFCKSTGESAQTSQH
notes: Gal4 hybrid in yeast; also expressed in mammalian cells (34 kDa); also called MACH B; MACH ORF-B
B4: MACHα1 (C360S) (enzyme)
chain: MDFSRNLYDIGEQLDSEDLASLKFLSLDYIPQRKQEPIKDALMLFQRLQEKRMLEESNLSFLKELLFRINRLDLLITYLNTRKEEMERELQTPGRAQISAYRVMLYQISEEVSRSELRSFKFLLQEEISKCKLDDDMNLLDIFIEMEKRVILGEGKLDILKRVCAQINKSLLKIINDYEEFSKERSSSLEGSPDEFSNGEELCGVMTISDSPREQDSESQTLDKVYQMKSKPRGYCLIINNHNFAKAREKVPKLHSIRDRNGTHLDAGALTTTFEELHFEIKPHDDCTVEQIYEILKIYQLMDHSNMDCFICCILSHGDKGIIYGTDGQEAPIYELTSQFTGLKCPSLAGKPKVFFIQASQGDNYQKGIPVETDSEEQPYLEMDLSSPQTRYIPDEADFLLGMATVNNCVSYRNPAEGTWYIQSLCQSLRERCPRGDDILTILTEVNYEVSNKDDKKNMGKQMPQPTFTLRKKLVFPSD
notes: Gal4 hybrid in yeast; also called MACHα(C360S)
B5: GST-huFas-IC (receptor, human, UniProt P25445 191-335, looked up)
chain: KRKEVQKTCRKHRKENQGSHESPTLNPETVAINLSDVDLSKYITTIAGVMTLSQVKGFVRKNGVNEAKIDEIKNDNVQDTAEQKVQLLRNWHQLHGKKEAYDTLIKDLKKANLCTLAEKIQTIILKDITSDSENSNFRNEIQSLV
notes: domain: intracellular domain; Produced in E. coli, attached to glutathione beads; also called GST fusion with the human Fas-IC; GST-Fas-IC; not shown: glutathione S-transferase (GST) fusion partner
B6: GST-mFas-IC (receptor, mouse, UniProt P25446 187-327, looked up)
chain: B2 chain
notes: domain: intracellular domain; Produced in E. coli, attached to glutathione beads; also called GST fusion with the mouse Fas-IC; not shown: glutathione S-transferase (GST) fusion partner
B7: mouse Fas-IC I225N (receptor, UniProt P25446 187-327, looked up)
chain: B2 chain with I60N
notes: domain: intracellular domain; The text says 'Ile to Leu' but labels the mutant I225N; Position as printed; may count on the mature receptor; also called lprcg mutation
B8: human p55-IC (intracellular domain of human p55 TNF receptor, residues 206-426) (receptor, UniProt P19438 235-455, looked up)
chain: RYQRWKSKLYSIVCGKSTPEKEGELEGTTTKPLAPNPSFSPTPGFTPTLGFSPVPSSTFTSSSTYTPGDCPNFAAPRREVAPPYQGADPILATALASDPIPNPLQKWEDSAHKPQSLDTDDPATLYAVVENVPPLRWKEFVRRLGLSDHEIDRLELQNGRCLREAQYSMLATWRRRTPRREATLELLGRVLRDMDLLGCLEDIEEALCGPAALPPAPSLLR
notes: range 206-426; Gal4 hybrid in yeast; Numbering as printed; may count on the mature receptor; also called 206-426 p55; intracellular domain of human p55-R (CD120a)
B9: mouse Fas-IC I225A (receptor, UniProt P25446 187-327, looked up)
chain: B2 chain with I60A
notes: domain: intracellular domain; Position as printed; may count on the mature receptor
B10: MORT-1 fragment residues 130-245 (MORT-1 DD) (other, human, UniProt Q13158 82-197, looked up)
chain: FEAGAAAGAAPGEEDLCAAFNVICDNVGKDWRRLARQLKVSDTKIDSIEDRYPRNLTERVRESLRIWKNTEKENATVAHLVGALRSCQMNLVADLVQEVQQARDLQNRSGAMSPMS
notes: Gal4 hybrid in yeast; expressed in HeLa cells for the cytotoxicity test; also called MORT 'tail'

Experiments:
[1] = tested on: T1, Acetyl-Asp-Glu-Val-Asp-a-(4-Methyl-Coumaryl-7-Amide)
[2] = tested on: T2, Acetyl-Tyr-Val-Ala-Asp-AMC
[3] = target: B8; assay: yeast two-hybrid beta-galactosidase test
Description: (§1) The interaction of the proteins encoded by the Gal4 DNA binding domain and activation-domain constructs (pGBT9 and PGAD-GH) within transfected SFY526 yeasts was assessed by β-galactosidase expression filter assay. […] The intracellular domains of human p55 TNF receptor (p55-IC residues 206-426), human CD40 (CD40-IC, residues 216-277) and human p75 TNF receptor (p75-IC, residues 287-461) as well as lamin, cyclin D and “empty” Gal4 (pGBT9) vectors served as negative controls in the form of DNA-binding domain constructs. SNF-1 and SNF4 served as positive controls in the form of DNA-binding-domain (SNF1) and activation-domain (SNF4) constructs. “Empty” Gal4 vectors (pGAD-GH) also served as negative controls in the form of activation domain constructs. The symbols “++” and “+” used in the presentation of the results of the above analysis denote the development of strong color within 30 and 90 min of the assay, respectively; and “−” denotes no development of color within 24 h.

[4] = target: T3, TRADD; assay: yeast two-hybrid screen of a human B cell library with MORT-1 as bait
[5] = target: T4, MORT-1 (FADD), human, full-length …; assay: yeast two-hybrid beta-galactosidase filter assay; activation-domain hybrid against DNA-binding-domain hybrid (row); +++ = strong color within 30 min; settings: remark: other sources report otherwise
[6] = target: B1; assay: yeast two-hybrid beta-galactosidase test
Description: as §1

[7] = target: B4; assay: yeast two-hybrid test
From the text: (§2) Except where otherwise indicated, all experimental procedures for the findings presented are as described above (see also Boldin et al., 1995).

[8] = target: T6, MACHα1 (human, UniProt Q14790 1-479); assay: yeast two-hybrid test
T6 construct: also called CASP-8α1
From the text: as §2

[9] = target: the molecule itself; assay: yeast two-hybrid beta-galactosidase filter assay; activation-domain hybrid against DNA-binding-domain hybrid (row); + = strong color within 90 min
[10] = target: the molecule itself; assay: yeast two-hybrid test
From the text: as §2

[11] = target: T5, FLAG-MORT-1; assay: in vitro binding of 35S-labeled FLAG-MORT-1 from HeLa extracts to GST fusion on glutathione beads, SDS-PAGE and autoradiography
Description: Glutathione S-transferase (GST) fusions with the wild type or a mutated Fas-IC were produced and adsorbed to glutathione-agarose beads; see Boldin et al., 1995; Current Protocols in Molecular Biology, 1994; Frangioni and Neel, 1993). […] The extracts were prepared in a buffer containing 50 mM Tris-HCl, pH 7.5, 150 mM NaCl, 0.1% NP-40, 1 mM dithiotreitol, 1 mM EDTA, 1 mM phenylmethylsulfonyl fluoride, 20 μg/ml Aprotonin, 20 μg/ml Leupeptin, 10 mM sodium fluoride and 0.1 mM sodium vanadate (1 ml per 5×10⁵ cells).

[12] = target: B3; assay: yeast two-hybrid beta-galactosidase filter assay
Description: (§3) Their interaction was assessed by a β-galactosidase expression filter assay as described in Boldin et al., (1995b). The results are presented in terms of the time required for the development of strong color. […] Except where otherwise indicated, all experimental procedures for the findings presented are as described above (see also Boldin et al., 1995).

[13] = target: B4; assay: yeast two-hybrid beta-galactosidase filter assay
Description: as §3

[14] = target: T6, MACHα1; assay: yeast two-hybrid beta-galactosidase filter assay
Description: as §3

How did the “cleavage of fluorogenic peptide substrate (AMC release) by bacterial lysates” value (“cleavage” below) [1] turn out when GST fusion of MACHα1 Ser217 till Asp374 was run?
Its value is “Nor did cleavage occur”.

How did the “cleavage” value [1] turn out when GST fusion of the full-length MACHα1 was run?
The value was “did not cleave Ac-DEVD-AMC”.

Which results are given for “GST fusion of the CED3/ICE homology region of MACHα1 (Ser217 through the C-terminus)”?
cleavage of fluorogenic peptide substrate (AMC release) by bacterial lysates [2]: They had no measurable proteolytic activity, though, against the IL-1β-precursor sequence-derived fluorogenic substrate; cleavage of fluorogenic peptide substrate (AMC release) by bacterial lysates [1]: cleaved effectively the PARP sequence-derived fluorogenic substrate

“GST fusion of MACHα1 Asp374 through the C-terminus” was tested. Which “cleavage” value [1] did it give?
Its value is “Nor did cleavage occur”.

How did the “cleavage” value [1] turn out when “GST-fused MACH CED3/ICE-homology region with Cys360 replaced by Ser” was run?
The value was “No cleavage was observed”.

Which results are given for B1?
binding result [3]: no binding; binding result [4]: binds; time to development of strong color (beta-galactosidase filter assay, yeast two-hybrid) [5]: < 30 min

Does B2 bind [6]?
Result: binds

Does B3 bind [7]?
Result: binds

Does B3 bind [8]?
Result: binds

Does B3 bind [9]?
Result: binds

Does B4 bind [10]?
Result: binds

Does B5 bind [11]?
Result: binds

Does B6 bind [11]?
Result: binds

Does B7 bind [6]?
Result: no binding

Which results are given for B8?
binding result [12]: no binding; binding result [13]: no binding; binding result [14]: no binding

Does B9 bind [6]?
Result: no binding

Does B10 bind [6]?
Result: no binding
